Laboratory results as given in the DeepSol protein solubility set.

Assay: soluble on expression in E. coli; label from the status in PepcDB or PDB records
With “MSISQNNFLTMFPVTYTFENGVYSTIINQNTIQTPIPNPIQHHIQNHIQTSIPNTNLLLENVQTDVQKLMVPLIDQQFHIPTSTPLQLAPIPTQIQSQLQPQISQIPIHNQPQIQIQSQVQPQLPTQSQPKPSSKASLDTSSNAFKKYVNPFAPEATVPLPVELEDQYGPYSSSVWKRNERERCRVRNVNDGYERLRKHLPVHFDEKRISKVDTLRLAIRYIKHLDNLLRSELHQYNCKCFNGFQEESEGNILIDISTFNFNSSNNAM” the “soluble on expression in E. coli” value was “not soluble”.
With “MGSDKIHHHHHHMDVLTPTPLTYPYEASRPKMALIAEGGGQRGIFTAGVLDAWLDNDFDPFDLFIGTSAGSQNLTSFLSRQKGYAKRLIRGLSRHKRFYQLGRGLVGGNVVDLDWYFDKTTQGSFALDFTAAAKSLGQRELLITATNSRDRQGYFLRPNGDNDHWRELLKASSALPFLYKQGVKLAPWLTASAANQVHTNYDYPQADFYLDGGLAAPLPVREAYRRGARKIVVIRTVNADFHAQSAWVHKLKSWICVSGYCPKTIDYLAQHEQAYEQELAFIANPPDDVEIIQIFADDNLQSKLLGSTDMDLRHDYQTGITAGNAFLHTQKAFYSTHSLHAQPLLESLTIMQSMTA” the “soluble on expression in E. coli” value was “not soluble”.
With “GSDDLVGVSVRPKVPLRTMSYKLAIDMSHFIKEKGGLEGIYYSARRHRILDIYLEKEEGIIPDWQDYTSGPGIRYPKTFGWLWKLVPVNVSDEAQEDEEHYLMHPAQTSQWDDPWGEVLAWKFDPTLAYTYEAYVRYPEEFGS” the “soluble on expression in E. coli” value was “soluble”.
For “MGSDKIHHHHHHMNREVVIVGGGPAGMLMGLLLAKEKIQVTVLEKNTTFNRDFRGETIAPGSVFLLKKLGVFKALEEHGFIKVQKIKMYDREEKLFSVNFDDFNHPQKFGIDIPQPVVLEALKQKASSYPNFEYIHGATCTDLIKDGEKVVGIRYSKEKEEHQIKCRLVIGAEGRFSRLRTLGHFAVEKKEFSRDLIWFKVPKPEGWEEGNLIKVYKHDHVIILPTYPNDLRVGTYIYLGGNRETKAKGIAAFIDKVCMIEPRLRKPMEKHIKSWDDTTLLKIFTAHVDQWAKDGLILIGDAAHTLSPILGQGVNIAMQDAFELLPYVNSGLKTYEGPLPAHHFDDYISKRKKQVSFVAGFQERQEQNLAASTPFQCMLRKVKMKLLDKAPFKIKVMKKLQYGVVANETTEGLT”, the “soluble on expression in E. coli” value was “not soluble”.
In the case of “LPLCFADASGTLRYVNDRFTRLFGYAPEDIPTQEEWWSRVCTDGRCRGETADAWQASVQRGPNGASDIEPAEFRVACKNGDIRLVEVSGITIEGTVLATFIDI”, the “soluble on expression in E. coli” value is reported as “not soluble”.
With “MSLPQKSKVMHIARTLTGSTTQDEGQERQEAKTQDCQEDKRPETLVKGNGNNMECSRLREKQGVLIANRDGGTR” the “soluble on expression in E. coli” value was “not soluble”.
With “MHYSSGNYEAFVRPRKSESADKKTAWLVGSGLAGLAGAAFLIRDGGVAGERITILEELDVPGGALDGLDVPEKGFVIRGGREMEEHFECLWDLYRSIPSLEVEDASVLDEFYRLNKDDPNFSLQRATQNQGQDAPDKALLTLNDRAQKDLLSVFLATREEMENKRINEVFSEDFLKSNFWLYWRTMFAFEEWHSALEMKLYLHRFIHHIGNLADFSSLKFNRYNQYESMVLPLVKWLQDHGVRFRYGIEVTDVDFDIHAEGKQATRIHWTEKGVEGGVDLGPDDLVLITIGSLTENSDNGDHHTPAKLREGPAPAWDLWRRIAAKDPAFGRPDVFGAHVTETKWASATITALDQRIPQYVEKIAKRNPFTGKIVTGGIVTVKDSSWLMSWAVHRQPHFKKQPKDQMIAWLYALFVDRPGDYVKKPMLDCTGEEITQEWLYHLGVPVEDIPELAAAGANTVPVMMPYITAFFMPRQAGDRPDVVPEGAVNFAFIGQFAESKQRDCIFTTEYSVRTPMEAVYTLMNVERGVPEVFNSTYDIRTLLAAIGPLRDGKGIDLPGPSFLHKLLMKKLEGTEIAELLKEFHLISELEHHHHHH” the “soluble on expression in E. coli” value was “not soluble”.
For “MKKTTLMSAVVATLSLVGCQSTTGSSDAQPEQTSHISQAVYEVEFHAAQSFLSQASQLEQSFADFCLAPKNDVEPVQQQWHSTMLAWMALQGQERGPATALEQSWNVQFWPDKKNTTGRKMSALTKADKVWTVEEISTQSVTVQGLGALEWLLYDDASTLNTNSNVCASGVAIAENLHDKAQIIANSWAENPWKSLQKTEWESEYISLLSNQLEYSMKKLSRPLAKIGHPRPYFSESWRSETSLSNLKANLESLHQLYFANGKGLDALLRAQGKTQLADRVAYQFDMALETWPEDKSLFSALQSVDGYRLVLAQYNKLEQLKYLIHEEVAIELGVVIGFNATDGD”, the “soluble on expression in E. coli” value was “not soluble”.
For “MVQELLKQLQNGEAKFADVLAYIESRFEHQPTAFKNGQQQNAATENQGSAKVFSLAQIEGLNQTETLSLFAEHYAAVLNTPEGTDHQNIRQFMQHGWDGVTFEGEALQAK”, the “soluble on expression in E. coli” value was “not soluble”.
With “MGSDKIHHHHHHMEASSGHQLMAETLGKFVSLVSKRLPDDVMAKLTELKGIETEPLAKSLYACMFENMEKAESLNRPTCQDTGVIQFFVRAGAKFPYLGELRGILKEATILSTKQAPLRLNAVEPFDEKNTGTNVGTKVPWIEWDIVSDDDSVEIEVYMAGGGCSLPGRSIVLPPLAGYEGAVKFVFDTIVEWGINACPPLTVGVGIGTCSTSAAKLSKMAMLRKLGSSNPHPRAAEMERRIQEGLDAIGLGPQGISGHRSVLGVHVEGMAHHPSVLGVGVTVGCWANRHGIIQFNKNLQYTMISHQGVEL” the “soluble on expression in E. coli” value was “not soluble”.
With “MVHSTDSFDFLGWNFVVKPNGKFISTPSQKATSSIKAKVKEVMKDSCFTLEERIDKCGAIVRGWRNYHRFCDMSQHNLWAIAYWTWKFIRKQGRYNRDQTNQVIHRAFPAVKWAACRFNNVTEDKSPLEHHHHHH” the “soluble on expression in E. coli” value was “not soluble”.
With “MDGAATKFFRPWESHGSYHHSLPSISPPDSPASTSASSSSSSIGANELTTKRRKCERCTCPNCKAIKHGDRGSQHTHLCSVPGCGKTYKKTSHLRAHLRKHTGDRPFVCDWFDCGKRFDRSDQLIRHKRTHTKEYRFACKFCIRQFSRSDHLQQHLTSVHNIVVVD” the “soluble on expression in E. coli” value was “not soluble”.
In the case of “MAHHHHHHSAALEVLFQGPGMAETKLQLFVKASEDGESVGHCPSCQRLFMVLLLKGVPFTLTTVDTRRSPDVLKDFAPGSQLPILLYDSDAKTDTLQIEDFLEETLGPPDFPSLAPRYRESNTAGNDVFHKFSAFIKNPVPAQDEALYQQLLRALARLDSYLRAPLEHELAGEPQLRESRRRFLDGDRLTLADCSLLPKLHIVDTVCAHFRQAPIPAELRGVRRYLDSAMQEKEFKYTCPHSAEILAAYR”, the “soluble on expression in E. coli” value is reported as “soluble”.
For “MGSDKIHHHHHHMNYKYYTIVILGLLAFSACEKDDIDIPATDNEVNQWIEQTMRENYLWYSELPDKSSLDFSLDPESFFKGLLSDKDGKELSDGHHYFSQLEKATVTKSIYDANNSYGFDFATSNLKDGGSTYKIAIVLYVLKDSPAEEAGLKRGDWILGVNGSLGSIQDYDVLRSGGSVSLQLGKETGNTKGFVSTRRVTLNASRTVEDSPFLKDSVYTYGNKRIGYLMYNHFASGPDEYDYSDTSYNLYLQQLFEKFKSRNVNEFVLDLRYNGGGLVNCAQLLASLLVRENVLGEPLCIMEYNDKNSNKNETLPLLKTTEVMAGNLNLQRLFVLTGSTTASASELIINSLRSYLDVRVIGKQTFGKTVGMTIYNESKKYGWILSPVTFHIYNKDREADYEDGFHPDVAIDEFKSDLAEFGDLKDPLLGQAIYEITGQSPLLRSATPRGNREIQYNPPLSYKDNLLLIPKD”, the “soluble on expression in E. coli” value was “not soluble”.
With “MKILHTADWHLGQTFYEYDRREEHLHFLEWLKQQIRQHEIDVLLIAGDVFDSPNPSAESQRMYYRFLREVTSENPSLQIIIIAGNHDSAARLEAPNPLLENMNVTVRGVVRRNAEGDIDLQHLIVPLYTEGEVTAYCLAVPYLRQGDYPSAENYSKGVQLLYEQLFNEVKEKGLPVIAMGHLQATGSEISEDDRSERTVIGGLECVSPDAFDEAIAYTALGHLHRSQRVSHRENVRYSGTPMPMSFAERNNASGVVMITISAEGTGIERLA” the “soluble on expression in E. coli” value was “not soluble”.
For “DQVSSLSSKYAVRLYEIIISWRAAGKTPMFSTMELRERLGMMPDEYQKMELFKRKVLDFAVKQINDKTDISITYEQHKEGRKIVGFTFSILHKIGSKDIPLENQSELFAGMTDLEAGTIRVRAEAYIASLIAKGQNVTKAHRLNILKKAVEERWGFEDVAKDNGAKNPENKNAKVVLNEWEKISNGTRFKDKDGTIWVKDSGMLRTEGTNRWIADSQIAKLFPMLTVMVEEGI”, the “soluble on expression in E. coli” value was “not soluble”.
In the case of “LRLCQVDRCTADMKEAKLYHRRHKVCEVHAKASSVFLSGLNQRFCQQCSRFHDLQEFDEAKRSCRRRLAGHNERRRKSSGE”, the “soluble on expression in E. coli” value is reported as “soluble”.
For “MKREEYLKNYLESYLRKKEVSLTEEEFNVILREFLRFAYNPEESGQEIADTADGSKTLIHKTYGEPYHSQTAGAIRESLYKFVRPSRILEKAKERKVIRILDVGFGLGYNLAVALKHLWEVNPKLRVEIISFEKELLKEFPILPEPYREIHEFLLERVPEYEGERLSLKVLLGDARKRIKEVENFKADAVFHDAFSPYKNPELWTLDFLSLIKERIDEKGYWVSYSSSLSVRKSLLTLGFKVGSSREIGRKRKGTVASLKAPVPPMEENEVRKLVLSPFAVPMRDEKLDKEPLEILIDYLLKVYKISR”, the “soluble on expression in E. coli” value was “soluble”.
For “MGSDKIHHHHHHMDTQQLKVVSQQVQEQANFPPEFNRLLNELPDEVKHRIFPHLELVQLELGDVVCEAGSKVRYVYFPLNSIISLLYVMENGASAEIAVVGNDGMVGVALFMGGESTTSRAIVQSAGVAYRLFGQRLKDEFNRHGALLHLLLRYSQILLTQMAQTAVCNRHHSIEQQLCRWLLLSIDRLPDDRVMMTQELIANMLGVRREGVTDAAGKLQRIGIINYSRGNIEVLDRKLLEQTCCECYSVVKQESERLMPLKKFTKK”, the “soluble on expression in E. coli” value was “not soluble”.
With “KEVRLSKHFYEDKEIEEIKHKDLAETPFQQQVIDYLYRHIAAQKEKVVEQQLQIKNHEQTITEFVHDIKTPVTAMKLLIDQENDDQRKRALLFEWSRINEMLDKQLYLTRLETHHRDMYFDYISLKRMVIDEIQVTRHISQAKGIGFELDFKDEQKVYTDVKWCRMMIRQVLSNSLKYSDNSTINLSGYNIEGHVVLKIKDYGRGISKRDLPRIFDRGFTSTTDRNDTASSGMGLYLVQSVKEQLGIEVKVDSIVGKGTTFYFIFPQQNEIIERMSKVTRLSF” the “soluble on expression in E. coli” value was “not soluble”.
In the case of “MSDHLGSSHDEGELSDESHKKSQRASSSDEPNPAKSNKGLESKMRESILSRLSKRKNSESDDDTTEQRFSIQPKNAQKAKEDRYRDKERDKKREKDKRDDRRDVRGPDARQKDRDFKGRQERSGRDQKVHEHRHHHHHRKHETDGHRTNRSNRDRSSERDSEKHKRHIDRHKKSSTTSPDNDKSPHKKSKHTDVPADAKLFDRILDPNYKKKDDDVLVIEDVEMSPIEILEEKEEKEIVEFTIDSPAGPKKYSKFESDPESDHDDTKPKSPGKAEDDDDVIEVLDDALHSDDDADSDEDKYLKTPEDREWEEMTETEQRLHKEAMKKRASMKQKTLIAQLPVFYPGLMGCRNIDEYECVNRVDEGTFGVVYRGKDKRTDEIVALKRLKMEKEKEGFPITALREINMLLKAGNHPNIVNVKEILLGSNMDKIYMAMEFVEHDMKSLLDTMSRRNKRFSIGEQKTLLQQLLSGIEHMHKLWILHRDLKTSNLLMSHKGILKIADFGLAREYGDPLKKFTSIVVTLWYRSPELLLGTRLYSTPVDMWSVGCIMAEFILLKPLFPGRGELEQIKKIFMEMGTPTESIWPGVTELDGWKALTFEKYPYNQLRKRFLAGRLLNDTGFKLLNGLLTLDPKNRFSATQALDHEWFTEEPYPVPPEEFPTFPAKSEQNKAPPPAKQKQQENRISHVDPETAKLLKQFEVRPEQVKPGGFSLKFDPTRF”, the “soluble on expression in E. coli” value is reported as “not soluble”.
With “MPKDNTWYTGAKLGWSQYSRENQLGAGAFGGYQVNPYVGFEMGYDWLGRMPRKAQGVQLTAKLGYPKLGTDDLDIYTRLGGMVWRADTSDKDGNGYISAAEASVSPVFAGGVEYVIRRRITPEIATRLEYQWTNNASDNGMLSLGVSYRFGQGEAA” the “soluble on expression in E. coli” value was “soluble”.
